Reference: paper PMC6297230, “Structural basis of meiotic telomere attachment to the nuclear envelope by MAJIN-TERB2-TERB1” (Nature Communications, 2018)

Experiments:
Assay in all cases: EMSA
Settings in all cases: apparent, Hill fit; EMSA: 20 mM Tris pH 8.0, 250 mM KCl, 1 h at 4 °C, 3% glycerol, 0.5% agarose in 0.5x TBE; 25 nM FAM-DNA for Kd (protein as oligomer), 0.3 uM DNA for display
[1] = biological target: MAJIN Core;TERB2 C (human;human) (UniProt Q3KP22+Q8NHR7)
[2] = biological target: MAJIN dTM;TERB2 C-Tr (human;human) (UniProt Q3KP22+Q8NHR7)
Sequence of MAJIN dTM;TERB2 C-Tr (human;human) (Q3KP22 whole entry, chain 1 of 2): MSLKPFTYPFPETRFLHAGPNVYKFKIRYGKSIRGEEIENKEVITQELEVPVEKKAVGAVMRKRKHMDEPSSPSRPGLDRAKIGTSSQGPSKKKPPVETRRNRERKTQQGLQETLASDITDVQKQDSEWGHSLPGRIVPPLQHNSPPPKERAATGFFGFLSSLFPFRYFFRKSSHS
Sequence of MAJIN dTM;TERB2 C-Tr (human;human) (Q8NHR7 168-207, chain 2 of 2): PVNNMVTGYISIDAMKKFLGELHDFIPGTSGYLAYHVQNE

[3] = biological target: MAJIN Core;TERB2 full length;TERB1 TRFB (human;human;human) (UniProt Q3KP22+Q8NHR7+Q8NA31)
Sequence of MAJIN Core;TERB2 full length;TERB1 TRFB (human;human;human) (Q3KP22 whole entry, chain 1 of 3): as the sequence (Q3KP22 whole entry, chain 1 of 2) above
Sequence of MAJIN Core;TERB2 full length;TERB1 TRFB (human;human;human) (Q8NHR7 whole entry, chain 2 of 3): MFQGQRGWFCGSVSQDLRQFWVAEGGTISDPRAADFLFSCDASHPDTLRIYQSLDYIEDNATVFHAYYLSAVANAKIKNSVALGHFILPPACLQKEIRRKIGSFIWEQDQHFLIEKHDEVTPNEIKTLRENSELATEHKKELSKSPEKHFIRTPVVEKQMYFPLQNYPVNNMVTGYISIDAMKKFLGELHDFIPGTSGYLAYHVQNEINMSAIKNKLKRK
Sequence of MAJIN Core;TERB2 full length;TERB1 TRFB (human;human;human) (Q8NA31 561-658, chain 3 of 3): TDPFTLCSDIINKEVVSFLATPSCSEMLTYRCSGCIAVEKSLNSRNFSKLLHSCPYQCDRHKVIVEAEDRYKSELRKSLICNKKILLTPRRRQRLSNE

[4] = biological target: MAJIN dTM;TERB2 C (human;human) (UniProt Q3KP22+Q8NHR7)
Sequence of MAJIN dTM;TERB2 C (human;human) (Q3KP22 whole entry, chain 1 of 2): as the sequence (Q3KP22 whole entry, chain 1 of 2) above
Sequence of MAJIN dTM;TERB2 C (human;human) (Q8NHR7 168-220, chain 2 of 2): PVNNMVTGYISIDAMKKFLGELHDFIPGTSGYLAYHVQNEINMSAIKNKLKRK

Sequence of MAJIN Core;TERB2 C (human;human) (Q3KP22 whole entry, chain 1 of 2): as the sequence (Q3KP22 whole entry, chain 1 of 2) above
Sequence of MAJIN Core;TERB2 C (human;human) (Q8NHR7 168-220, chain 2 of 2): as the sequence (Q8NHR7 168-220, chain 2 of 2) above

Sequence | Kd [1] [nM] | Kd [2] [nM] | Kd [3] [nM] | Kd [4] [nM]
TTAGGGTTAGGGTTAGGGTTAGGGTTAGGGTTAGGGTTAGGGTTAGGGTTAGGGCGACGACCCTAACCCTAACCCTAACCCTAACCCTAACCCTAACCCTAACCCTAACCCTAA [Telomeric hairpin DNA (54 bp)] | 610 |  |  | 
TTTTTTTTTTTTTTTTTTTTTTTTTTTTTTTTTTTTTTTTTTTTTTTTTTTTTTTTTTTTTTTTTTTTTTTTTTTTTTTTTTTTTTTTTTTTTTTTTTTT [Poly(dT) (100 nt)] | 510 |  |  | 
AATTCTCATTTTACTTACCGGACGCTATTAGCAGTGGCAGATTGTACTGAGAGTGCACCATATGCGGTGTGAAATACCGCACAGATGCGT [Random ssDNA (90 nt)] | 900 |  |  | 
TTCCAGGGTTCCATGGAGATAAAGGTCAATAAATTAGAGTTAGAACTAGAAAGTGCCAAACAGAAATTTGGAGAAATCACAGACACCTATCAGAAAGAAATTGAGGACAAAAAGATATCAGAATAATAACCATGGATATCGAATT (double strand) [FAM random dsDNA (145 bp)] | 550 | 200 | 460 | 120
